Data: PMC6101532

Columns and labels:
[1] = target: MBP–RsbN α3 (maltose binding protein joined by a linker to RsbN α3) (Streptomyces venezuelae); experiment: SEC
[2] = target: his-tagged RsbN(1–91) (Streptomyces venezuelae); experiment: SEC

Row | Substance | stoichiometry N [1] | stoichiometry N [2]
1 | BldN (σ^BldN), full length, wild type (natural protein) | 1 | 
2 | BldN domain 2 (σ2), non-tagged (domain or fragment) |  | 1
3 | BldN domain 4 (σ4), non-tagged (domain or fragment) |  | 1
